Tested on: MS2 coat protein
Test: apparent KD of MS2 coat protein; designed switch direction (-1 OFF switch, 1 ON switch): -1; higher = weaker reporter binding
In short: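 An oligonucleotide input, 200 uM small-molecule ligand, or no input was present during titration of SNAP-549-labelled MS2 coat protein, which was doubled from 0.7 or 1.5 nM to 3 µM. Designed RNA switches had been transcribed on Illumina chips by stalled E. coli RNA polymerase. Apparent KD per design is the median over clusters of curves fitted to normalised cluster fluorescence.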

[1] = input ligand: microRNA oligo, concentration not stated
[2] = Eterna round: R95, input ligand: microRNA oligo, concentration not stated
[3] = Eterna round: R95, input ligand: FMN 200 uM
[4] = Eterna round: R95, input ligand: none

Row | Sequence | apparent KD of MS2 coat protein (input ligand: FMN 200 uM) [nM] | apparent KD of MS2 coat protein (input ligand: none) [nM] | apparent KD of MS2 coat protein [2] [nM] | other results
1 | CCCACCUCAUGAACAACAUGAGGAUCACCCAUGUUGAAGACUAAGGAUAUCGUACUCGAUGAAUGCGAGAAGGUGGCACUUCGA [Eternabot solution 36] (Eterna round: R96, puzzle: Exclusion NG 3) | 37.3 | 28.7 |  | apparent KD of MS2 coat protein [1]: 20.7 nM
2 | CCCACGUGAGGAUAUUCAACGGUAAGCGAUCUAUGCACCUUGAAGAAGGCACAUGAGGAUCACCCAUGUCCUAA [Eternabot (L1) Solution 44] (Eterna round: R97, puzzle: Exclusion 4) | 44.8 | 22.2 |  | 
3 | CCCAGUUACUGAGGAUAUCCUACAUGAGGAUCACCCAUGUAAUAAAUGAGGAUUUCGGGUGUCUAGGAGAAGGCAGGGAUAGGC [Ostracism 23 - Jieux - Exclusion NG 2] (Eterna round: R96, puzzle: Exclusion NG 2) | 84.9 | 50.3 |  | apparent KD of MS2 coat protein [1]: 28.8 nM
4 | CCCAGUUAGAGAGGAUAUCUUACAUGAGGAUCACCCAUGUAAUAAAUGAGGAUUUCGGGUGUCUAAGAGAAGGCUCGGAUAGGC [Ostracism 29 - Jieux - Exclusion NG 2] (Eterna round: R96, puzzle: Exclusion NG 2) | 37.9 | 26.4 |  | apparent KD of MS2 coat protein [1]: 15.3 nM
5 | CCCAGUUAUCUAGGAUAUUGUACAUGAGGAUCACCCAUGUAAUAAAUGAGGAUUUCGGGUGUCUACAAGAAGGAGAGGAUAGGC [Ostracism 16 - Jieux - Exclusion NG 2] (Eterna round: R96, puzzle: Exclusion NG 2) |  |  |  | apparent KD of MS2 coat protein [1]: 20.4 nM
6 | CCCAUGUUAGGAUAUAUGGAAGGGCGGACGGGCGCCCUAAGGUAGAAGGGACAUGAGGAUCACCCAUGUAAUAA [Diquar] (Eterna round: R97, puzzle: Exclusion 4) | 194 | 160 |  | 
7 | CCCAUGUUAGGAUAUCGGCUCCGCCGUUCCACAUGGCGCUCCGAGAAGGAACAUGAGGAUCACCCAUGUAAAGA [Raza] (puzzle: Exclusion 4) |  |  | 34 | 
8 | CCCGAGCAUGUAGGAUAUGGCUCGGUGUCUGGGCCAGAAGGACAUGAGGAUCACCCAUGUCUGCGGGUGUGGAUAUGAUUUGGG [-32, -31 kcal A 20%] (Eterna round: R96, puzzle: Exclusion NG 1) | 85.2 | 32.1 |  | apparent KD of MS2 coat protein [1]: 14.5 nM
9 | CCCGUCGAUGUAGGAUAUGCCCGGGUCUCCCGGGCAGAAGGACAUGAGGAUCACCCAUGUUCAUGAGGGUCGCCCAUGAAUGGG [Double but mutated MS2] (Eterna round: R96, puzzle: Exclusion NG 1) | 88.8 | 21.2 |  | apparent KD of MS2 coat protein [1]: 17 nM
10 | CCCGUGUAAGGAUAUGACAAUGGUAUCUUCGGAUACCAUUGUCAGAAGGUACAUGAGGAUCACCCAUGUAACAC [Ex4-3: 14] (puzzle: Exclusion 4) |  |  | 28 | 
11 | CCCUCAAGCGAGGAUAUAAAUGCGCAUUCGCGGUUAGAAGGCGCUACAUGAGGAUCACCCAUGUAAUUGUAUGG [jl-ex6-4.53 ViennaUCT mod] (Eterna round: R97, puzzle: Exclusion 6) | 98.4 | 73.4 |  | 
12 | CCCUCACAUGAGGAUCACCCAUGUCAGGAUAUUCGACGGUAAAUUGGCCGUCUUAAAGGAAGAAGGGACGUAAC [Lesoorxe] (puzzle: Exclusion 1) |  |  | 13 | 
13 | CCCUCACAUGAGGAUCACCCAUGUUAGGAUAUCUACCAGGAGCCUAAAAUGGCCCAACGGAGAAGGAACGUGCA [Arbire] (Eterna round: R96, puzzle: Exclusion 1) |  |  |  | apparent KD of MS2 coat protein [1]: 14.7 nM
14 | CCCUUGUGAGGAUAUUCUUAAAAUGCUAACCACAAUUUUAUGAAGAAGGCACAUGAGGAUCACCCAUGUUUCUC [mod1] (Eterna round: R97, puzzle: Exclusion 4) | 80.5 | 96.4 |  | 
15 | CCGAAACAUGAGGAUCACCCAUGUGAGGAUAUGAGCGUCUAGUUGAGAGAUUGGACGCUCAGAAGGCACAAAGG [JR_Ex1_Sub074] (Eterna round: R97, puzzle: Exclusion 1) | 105 | 35.5 |  | 
16 | CCGAAGCUAGGAUAUACAUGAGGAUCACCCAUGUAAUCUCAUUUACGGGUCGGGCGCAGUAGAAGGAGCAAAGU [EX3 B.17] (Eterna round: R97, puzzle: Exclusion 3) | 17.5 | 15.6 |  | 

Row | Sequence | apparent KD of MS2 coat protein (input ligand: FMN 200 uM) [nM] | apparent KD of MS2 coat protein (input ligand: none) [nM] | apparent KD of MS2 coat protein [2] [nM] | other results
17 | CCGAAUAAGCAGGAUAUCGAAUCGGAGACGAUUCGAGAAGGGUUAACAUGAGGAUCACCCAUGUUCCUUAACGG [Mat - Exclusion 6 - Eli Mod - D79] (puzzle: Exclusion 6) |  |  | 17.3 | 
18 | CCGAAUAUGCAGGAUAUCGUAUAGGAAACUAUACGAGAAGGGUAAACAUGAGGAUCACCCAUGUUCCUUAACGG [Mat - Exclusion 6 - Eli Mod - D81] (puzzle: Exclusion 6) |  |  | 20.3 | 
19 | CCGAAUAUGCAGGAUAUCUUAUCGGAAACGAUAAGAGAAGGGUAAACAUGAGGAUCACCCAUGUUCCUUAACGG [Mat - Exclusion 6 - Eli Mod - D80] (puzzle: Exclusion 6) |  |  | 18.9 | 
20 | CCGAGGUGGCGGUCCUAUGACAUGAGGAUCACCCAUGUACCUCGCCACAAGCUCUUUGCUCAUCUUAUAGUUCUCGG [Onlaor] (Eterna round: R96, puzzle: Sensor v3, turn-off variant 1) | 19.9 | 24.5 |  | apparent KD of MS2 coat protein [1]: 132 nM
21 | CCGAGGUGGCGGUCCUAUGACAUGAGGAUCACCCAUGUACCUCGCCACAAGCUCUUUGCUCAUCUUAUAGUUCUCGG [Onlaor] (puzzle: Sensor v3, turn-off variant 1) |  |  | 124 | apparent KD of MS2 coat protein [3]: 18.6 nM; apparent KD of MS2 coat protein [4]: 17.9 nM
22 | CCGAGGUGGCGGUCCUAUGACAUGAGGAUCACCCAUGUACCUCGCCACGAGCCUUUUGCUCAUCUUAUAAUUCUCGG [Bienve] (puzzle: Sensor v3, turn-off variant 1) |  |  | 20.6 | apparent KD of MS2 coat protein [3]: 17.4 nM; apparent KD of MS2 coat protein [4]: 17.2 nM
23 | CCGCAAAAGCAGGAUAUCGUAUCGGAAACGAUACGAGAAGGGUUUACAUGAGGAUCACCCAUGUUCCUUAGCGG [Mat - Exclusion 6 - Eli Mod - D101] (puzzle: Exclusion 6) |  |  | 28.7 | 
24 | CCGCAAAAGGAGGAUAUCGUAUCGGAUACGAUACGAGAAGGCCUAACAUGAGGAUCACCCAUGUGUCCUAGCGG [Fiskers Ex 6 - 36] (puzzle: Exclusion 6) |  |  | 14.8 | apparent KD of MS2 coat protein [3]: 23.8 nM; apparent KD of MS2 coat protein [4]: 14.5 nM
25 | CCGCAAAUGGAGGAUAUCGUAUCGGAGACGAUACGAGAAGGCCAAACAUGAGGAUCACCCAUGUGUCCUAGCGG [Mat - Exclusion 6 - Eli Mod - D102] (puzzle: Exclusion 6) |  |  | 15.1 | apparent KD of MS2 coat protein [3]: 29.3 nM; apparent KD of MS2 coat protein [4]: 16 nM
26 | CCGCAGUGAGGAUAUUGUCAUAGACGGUGUGAAUCACGGGACAAGAAGGUACAUGAGGAUCACCCAUGUGGGUG [Eternabot (L1) Solution 1] (Eterna round: R97, puzzle: Exclusion 4) | 54.3 | 1560 |  | 
27 | CCGCAUAAGCAGGAUAUCGUAUCGGAUACGAUACGAGAAGGGUUUACAUGAGGAUCACCCAUGUUCCUUAGCGG [Fiskers Ex 6 - 31] (puzzle: Exclusion 6) |  |  | 26.2 | 
28 | CCGCAUGCUGUCAGGAUAUCGUAGAUAAUAAUAUGCGAGAAGGGACAUGAGGAUCACCCAUGUAAGAGGCGGCC [Design for Riboswitch] (puzzle: Brourd's mod of Exclusion 4) |  |  | 24.4 | 
29 | CCGCUCCGUGUAGGAUAUUGGCGUGCCCUGCGCCGAGAAGGACAUGAGGAUCACCCAUGUAUGUUAUUAUCACGCGUGGCGCAC [Design 76] (Eterna round: R96, puzzle: Exclusion NG 1) | 15.9 | 17 |  | apparent KD of MS2 coat protein [1]: 12.9 nM
30 | CCGCUGCAAGGAUAUACUUGCGGUGGUGCUCGAGUUCUUCUACUUGAGGAUCACCCAAGUAGAAGGUGCAAAAC [jl-ex2.4.57 ViennaUCT mod] (Eterna round: R97, puzzle: Exclusion 2) | 34.4 | 17.1 |  | 
31 | CCGGAAAGGAAGGAUAUGCUAGACGAGAGUCUAGCAGAAGGUCCUACAUGAGGAUCACCCAUGUGUCCUACCGG [Mat - Exclusion 6 - Eli Mod - D38] (Eterna round: R97, puzzle: Exclusion 6) | 69.6 | 79.8 |  | 
32 | CCGGAAAGGAAGGAUAUGCUUGACGAAAGUCAAGCAGAAGGUCCUACAUGAGGAUCACCCAUGUGGCCUCCCGG [Mat - Exclusion 6 - Eli Mod - D48] (Eterna round: R97, puzzle: Exclusion 6) | 737 | 128 |  | 
